The supplement of paper PMC9112550, “Optimization of the antimicrobial peptide Bac7 by deep mutational scanning” (BMC Biology, 2022)
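Also: peptides expressed intracellularly from a pBAD plasmid library in pooled LB shake-flask culture, induced with 0.3% L-arabinose, DNA abundance read by NGS, three biological replicates, DESeq2 with apeglm shrinkage.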

Each sequence was assayed on Escherichia coli TOP10 (assay: shrunken log2 fold change of peptide-encoding DNA abundance (4.5 h post-induction vs induction); higher = less antimicrobial activity (less host growth inhibition)). Details: time post-induction: 4.5 h; library: site-saturation at positions 5, 18, 19, 20.
In the case of RRIRWRPPRLPRPRPRPDDDPRP, the “shrunken log2 fold change” value is reported as 3.98. With RRIRWRPPRLPRPRPRPHAHPRP the “shrunken log2 fold change” value was 0.0336. In the case of RRIRKRPPRLPRPRPRPEPCPRP, the “shrunken log2 fold change” value is reported as 0.0397. RRIRLRPPRLPRPRPRPQRFPRP was tested, and the “shrunken log2 fold change” value was -0.142. With RRIRHRPPRLPRPRPRPSVFPRP the “shrunken log2 fold change” value was -0.424. With RRIRARPPRLPRPRPRPICFPRP the “shrunken log2 fold change” value was 1.21. RRIRWRPPRLPRPRPRPPAVPRP was tested, and the “shrunken log2 fold change” value was 0.698. With RRIRIRPPRLPRPRPRPRLCPRP the “shrunken log2 fold change” value was 0.0776. For RRIRHRPPRLPRPRPRPPNLPRP, the “shrunken log2 fold change” value was 0.189. In the case of RRIRQRPPRLPRPRPRPTECPRP, the “shrunken log2 fold change” value is reported as 0.0119. For RRIRFRPPRLPRPRPRPFEKPRP, the “shrunken log2 fold change” value was -0.0749. In the case of RRIRLRPPRLPRPRPRPCQPPRP, the “shrunken log2 fold change” value is reported as -0.0919. RRIRQRPPRLPRPRPRPTIFPRP was tested, and the “shrunken log2 fold change” value was -0.0347. With RRIRPRPPRLPRPRPRPKHLPRP the “shrunken log2 fold change” value was -0.355. RRIRPRPPRLPRPRPRPGCFPRP was tested, and the “shrunken log2 fold change” value was 0.158. RRIRERPPRLPRPRPRPLYVPRP was tested, and the “shrunken log2 fold change” value was -0.939. In the case of RRIRSRPPRLPRPRPRPMLSPRP, the “shrunken log2 fold change” value is reported as 0.149. In the case of RRIRTRPPRLPRPRPRPEKPPRP, the “shrunken log2 fold change” value is reported as 0.0634. In the case of RRIRARPPRLPRPRPRPWDPPRP, the “shrunken log2 fold change” value is reported as 0.496. RRIRWRPPRLPRPRPRPMMGPRP was tested, and the “shrunken log2 fold change” value was 0.0383. For RRIRMRPPRLPRPRPRPNTNPRP, the “shrunken log2 fold change” value was 0.128. RRIRIRPPRLPRPRPRPWWVPRP was tested, and the “shrunken log2 fold change” value was -0.077. With RRIRRRPPRLPRPRPRPRTKPRP the “shrunken log2 fold change” value was 0.0753. In the case of RRIRERPPRLPRPRPRPMDSPRP, the “shrunken log2 fold change” value is reported as -0.0933. With RRIRWRPPRLPRPRPRPVNHPRP the “shrunken log2 fold change” value was -0.191. With RRIRERPPRLPRPRPRPPPSPRP the “shrunken log2 fold change” value was 0.415. In the case of RRIRTRPPRLPRPRPRPYSPPRP, the “shrunken log2 fold change” value is reported as -0.226. With RRIRARPPRLPRPRPRPLWVPRP the “shrunken log2 fold change” value was 0.959. With RRIRARPPRLPRPRPRPWPYPRP the “shrunken log2 fold change” value was -0.144. In the case of RRIRMRPPRLPRPRPRPNACPRP, the “shrunken log2 fold change” value is reported as 0.0451. For RRIRNRPPRLPRPRPRPRRFPRP, the “shrunken log2 fold change” value was 0.0247. For RRIRYRPPRLPRPRPRPFNWPRP, the “shrunken log2 fold change” value was -0.238. For RRIRFRPPRLPRPRPRPVLTPRP, the “shrunken log2 fold change” value was -0.213. In the case of RRIRMRPPRLPRPRPRPYGHPRP, the “shrunken log2 fold change” value is reported as -0.0791. With RRIRLRPPRLPRPRPRPRITPRP the “shrunken log2 fold change” value was -0.027. With RRIRQRPPRLPRPRPRPMADPRP the “shrunken log2 fold change” value was 0.207. For RRIRRRPPRLPRPRPRPTDRPRP, the “shrunken log2 fold change” value was 0.194. RRIRSRPPRLPRPRPRPYAVPRP was tested, and the “shrunken log2 fold change” value was -0.137. RRIRGRPPRLPRPRPRPGFHPRP was tested, and the “shrunken log2 fold change” value was 0.296. RRIRCRPPRLPRPRPRPIHGPRP was tested, and the “shrunken log2 fold change” value was -0.33. RRIRCRPPRLPRPRPRPPMIPRP was tested, and the “shrunken log2 fold change” value was -0.0902. For RRIRYRPPRLPRPRPRPENVPRP, the “shrunken log2 fold change” value was -0.00208. With RRIRNRPPRLPRPRPRPWKFPRP the “shrunken log2 fold change” value was -0.0447. For RRIRYRPPRLPRPRPRPWAHPRP, the “shrunken log2 fold change” value was -0.324. RRIRSRPPRLPRPRPRPCALPRP was tested, and the “shrunken log2 fold change” value was -0.242. For RRIRPRPPRLPRPRPRPHLYPRP, the “shrunken log2 fold change” value was -0.192. In the case of RRIRGRPPRLPRPRPRPSPVPRP, the “shrunken log2 fold change” value is reported as 0.585. In the case of RRIRFRPPRLPRPRPRPVVFPRP, the “shrunken log2 fold change” value is reported as -0.119. With RRIRMRPPRLPRPRPRPASWPRP the “shrunken log2 fold change” value was 0.901. RRIRERPPRLPRPRPRPGYLPRP was tested, and the “shrunken log2 fold change” value was -0.426. In the case of RRIRIRPPRLPRPRPRPQKIPRP, the “shrunken log2 fold change” value is reported as -0.148. For RRIRQRPPRLPRPRPRPWHFPRP, the “shrunken log2 fold change” value was -0.0375. In the case of RRIRTRPPRLPRPRPRPSMGPRP, the “shrunken log2 fold change” value is reported as -0.22. With RRIRWRPPRLPRPRPRPALEPRP the “shrunken log2 fold change” value was 0.939. In the case of RRIRVRPPRLPRPRPRPTSWPRP, the “shrunken log2 fold change” value is reported as 0.383. For RRIRERPPRLPRPRPRPAQNPRP, the “shrunken log2 fold change” value was 0.269. RRIRRRPPRLPRPRPRPCYWPRP was tested, and the “shrunken log2 fold change” value was 0.00692. With RRIRVRPPRLPRPRPRPTRVPRP the “shrunken log2 fold change” value was 0.0936. With RRIRERPPRLPRPRPRPPRPPRP the “shrunken log2 fold change” value was 0.64. RRIRDRPPRLPRPRPRPLGCPRP was tested, and the “shrunken log2 fold change” value was 0.206. RRIRERPPRLPRPRPRPPEMPRP was tested, and the “shrunken log2 fold change” value was 0.0477. In the case of RRIRTRPPRLPRPRPRPMDRPRP, the “shrunken log2 fold change” value is reported as -0.01. For RRIRCRPPRLPRPRPRPAKQPRP, the “shrunken log2 fold change” value was -0.0271. In the case of RRIRQRPPRLPRPRPRPGLAPRP, the “shrunken log2 fold change” value is reported as 0.197. For RRIRSRPPRLPRPRPRPAHMPRP, the “shrunken log2 fold change” value was -0.138. For RRIRIRPPRLPRPRPRPQCCPRP, the “shrunken log2 fold change” value was -0.0258. For RRIRTRPPRLPRPRPRPIESPRP, the “shrunken log2 fold change” value was 0.0133. In the case of RRIRCRPPRLPRPRPRPSQIPRP, the “shrunken log2 fold change” value is reported as -0.698. For RRIRHRPPRLPRPRPRPANIPRP, the “shrunken log2 fold change” value was -0.291. With RRIRDRPPRLPRPRPRPDTAPRP the “shrunken log2 fold change” value was -0.0593. In the case of RRIRPRPPRLPRPRPRPAQTPRP, the “shrunken log2 fold change” value is reported as 0.177. For RRIRVRPPRLPRPRPRPGPQPRP, the “shrunken log2 fold change” value was 0.245. For RRIRDRPPRLPRPRPRPGSSPRP, the “shrunken log2 fold change” value was 0.0783. With RRIRVRPPRLPRPRPRPPLVPRP the “shrunken log2 fold change” value was 0.227. With RRIRHRPPRLPRPRPRPWLYPRP the “shrunken log2 fold change” value was -0.217.
